According to patent publication US5714144A, “Human tissue-type plasminogen activator variant” (Genentech, Inc., priority 1995, dated 1998):
Values joined by “and” are separate entries in the source; they are usually repeats but may differ in a detail not shown here. Identical values can stand only once. Like-named read-outs stand apart in the source and are kept apart here.

Key:
[1] = Pharmacokinetics of unlabeled rt-PA in rabbits, immunoreactive t-PA by sandwich ELISA, i.v. bolus; format: in vivo; details: for Microconstant K10: elimination from central compartment; for Microconstant K10 / Microconstant K12 / Microconstant K21: Table 3; for Microconstant K12 / Microconstant K21: equilibration with peripheral compartment
Protocol: (§1) The unlabeled human tissue-type plasminogen activator was used as a carrier for the trace amount of labeled human tissue-type plasminogen activator in order to achieve therapeutic levels and to avoid alterations in the pharmacokinetics that could arise from concentration dependence in the clearance pathways. Serial arterial blood samples were collected over a 26 minute period and placed immediately into tubes containing a lyophilized mixture of D-phe-pro-arg-[…] (PPACK) and EDTA at final concentrations of 1 μM and 4.8 mM, respectively. The tubes were placed on ice and plasma was separated. Trichloroacetic acid (TGA) precipitable (intact human tissue-type plasminogen activator) and total radioactivity were measured in each plasma sample.
(§2) The following exponential equation was used: Cp=Ae^-αt +Be^-βt, where Cp is the concentration of rt-PA in the plasma at any time, t and A and B are the y intercepts of the fast and slow clearance phases which have slopes of α and β, respectively. The t1/2 for the α and β phases were calculated as the ratio: 1n2/slope. The results from the curve stripping procedure were used as initial approximations to fit the data to a biexponential model using PC NONLIN. One data set (FIG. 4) could not be fit using PC NONLIN so the data from the curve stripping procedure were used. Co, the plasma concentration at zero time, was the sum of A and B. Vo was calculated as dose divided by Co. Area under the curve (AUC) was determined by formula AUC=A/α+B/β. […] AUC was then used to calculate the clearance using the formula, Clearance=Dose/AUC. The relative contributions of the alpha and beta phases were calculated from the following formulas: [formula]
The data for Table 2 were fit to a model with direct elimination from the central compartment (K10) and equilibration with a peripheral compartment (K12 and K21).
(§3) Two types of data were generated from in vivo clearance studies in rabbits. One is from the immunoreactive human tissue-type plasminogen activator which should be a measure of the clearance of the unlabeled material. […] The curves of plasma concentration versus time from the immunoreactivity and the TGA precipitable counts were fit to the appropriate multiexponential models and the derived pharmacokinetic parameters were compared.

[2] = humans; cited from earlier work
[3] = clinical trials; cited from earlier work
[4] = rabbits; cited from earlier work
[5] = system: rat liver hepatocytes; details: in vitro; cited from earlier work
[6] = system: liver; details: in vivo; cited from earlier work
[7] = Pharmacokinetics of 125I labeled rt-PA in rabbits, trichloroacetic acid (TCA) precipitable radioactivity, i.v. bolus; format: in vivo
Source text: Arginine, 0.2M, and citrate, 0.1M, (pH 6.0) and Tween 80, 0.01 percent, was the buffer used at all times. All samples were dialyzed into this buffer prior to iodination. pH was adjusted to 8.2 with Tris base prior to iodination. The iodination mixture was passed across a PD-10 column (Pharmacia) equilibrated with pH 6.0 buffer, the radioactive fractions from the void volume were pooled, SDS-PAGE was run and the dried gel was autoradiographed.
as §1, §2, §3
The remaining modified forms of rt-PA were not available in quantities which would allow the pharmacokinetics to be characterized using the above techniques. Therefore the pharmacokinetic characteristics of these materials were determined following iodination.
The labeled rt-PA was always coinjected with 1 mg/kg of unmodified rt-PA. The rt-PA with high mannose oligosaccharide structures at all glycosylation sites, produced in the CHO 15B cell line, was also included in this experiment.

[8] = system: clot; assay: In vitro clot lysis assay (Collen et al.), fibrinolytic activity; format: biochemical
Source text: After reduction and carboxymethylation, 34.2 nmoles (expected number is 35) of carboxymethyl cysteine per nmole of rt-PA were recovered in the periodate-treated sample. […] However, with reduction and carboxymethylation,methionine recoveries increased to 3.3 and 2.8 nmoles for the periodate-treated and untreated materials respectively. […] There was no significant difference in recovery of the other amino acids between the periodate-treated and untreated rt-PA (data not shown). […] The specific activity of the periodate-treated PA was 91% that of the control rt-PA as measured by an in vitro clot lysis assay (Collen, D. et al., J. Clin. Path, 21:705-707 [1968]).

[9] = glycosylated versus deglycosylated; cited from earlier work
[10] = effect of PMSF titration of active site or coinjection of diisopropylfluorophosphate thrombin, asialoorosomucoid, macroalbumin or excess unlabeled t-PA; mice; cited from earlier work
[11] = system: rat liver endothelial cells; details: cited from earlier work
[12] = effect of monosaccharides, rats; cited from earlier work
[13] = removal of sialic acid or chemical modification of carbohydrate; cited from earlier work
[14] = immunoreactive rt-PA (IR), unlabeled, 1 mg/kg, n=4, Table 4
[15] = unlabeled rt-PA, i.v. bolus, doses control 1.0, ENDO 0.83, periodate […], n=5, Table 3
[16] = TCA precipitable radioactivity, labeled, 3.4 μCi/kg, n=4, Table 4
[17] = labeled rt-PA 10 μCi/kg, coinjected with 1 mg/kg unmodified rt-PA, Table 5

Substance: Control: wild type recombinant human tissue-type plasminogen activator (rt-PA)
- Microconstant K10 ([1]; unlabeled rt-PA): 227 min^-1 × 10^3
- Microconstant K12 ([1]; unlabeled rt-PA): 35 min^-1 × 10^3
- Microconstant K21 ([1]; unlabeled rt-PA): 42 min^-1 × 10^3
- % AUCα [1, 14]: 81.5%
- % AUCβ [1, 14]: 18.5%
- Cl [1, 14]: 5.51 mL/min/kg
- T1/2 α [1, 14]: 21.3 min
- T1/2 β [1, 14]: 3.05 min
- Vo [1, 14]: 0.03 L/kg
- Cl [1, 15]: 9.57 mL/min/kg
- T1/2 α [1, 15]: 2.61 min
- T1/2 β [1, 15]: 19.6 min
- alpha phase half life [2]: 4 min and 6 min
- effect on fibrinogen levels in the blood [3]: minimal effects on fibrinogen levels in the blood
- thrombolytic efficacy [3]: extremely effective thrombolytic agent
- alpha phase half life [4]: about 2 min
- binding affinity [5]: bind with high affinity to rat liver hepatocytes
- site of uptake and metabolism [6]: The liver is the most significant site of t-PA uptake and metabolism
- elimination of labeled versus unlabeled rt-PA ([7]; TCA precipitable counts versus immunoreactivity): cleared more slowly
- % AUCα [7, 16]: 62.1%
- % AUCβ [7, 16]: 37.9%
- Cl [7, 16]: 3.92 mL/min/kg
- T1/2 α [7, 16]: 30.3 min
- T1/2 β [7, 16]: 3.36 min
- Vo [7, 16]: 0.0277 L/kg
- % AUCα [7, 17]: 52%
- % AUCβ [7, 17]: 48%
- Cl [7, 17]: 5.72 mL/min/kg
- T1/2 α [7, 17]: 2.55 min
- T1/2 β [7, 17]: 14.9 min
- Vo [7, 17]: 0.0315 L/kg

Substance: Periodate
- elimination ([1]; FIG. 4, unlabeled): slow the elimination of rt-PA
- Microconstant K10 ([1]; unlabeled rt-PA): 63 min^-1 × 10^3
- Microconstant K12 ([1]; unlabeled rt-PA): 72 min^-1 × 10^3
- Microconstant K21 ([1]; unlabeled rt-PA): 54 min^-1 × 10^3
- Vo, difference versus control ([1]; unlabeled): no significant differences
- fold slower rate of clearance than control rt-PA ([1]; unlabeled): 2.7 fold
- t1/2 alpha, change versus control ([1]; unlabeled): significant increase
- t1/2 beta, difference versus control ([1]; unlabeled): no significant differences
- Cl [1, 15]: 3.53 mL/min/kg
- T1/2 α [1, 15]: 4.22 min
- T1/2 β [1, 15]: 37.5 min
- rate of clearance versus control ([7]; labeled): smaller rates of clearance than the control rt-PA
- relative size of alpha and beta phase ([7]; labeled): the dominant change in the elimination pattern of the Endo-H and Periodate treated rt-PA again appears to be in the relative size of the alpha and beta phase
- % AUCα [7, 17]: 32%
- % AUCβ [7, 17]: 68%
- Cl [7, 17]: 2.74 mL/min/kg
- T1/2 α [7, 17]: 3.30 min
- T1/2 β [7, 17]: 30.3 min
- Vo [7, 17]: 0.0326 L/kg
- specific activity relative to control rt-PA ([8]; in vitro clot lysis assay, % of control rt-PA): 91%
- fibrinolytic activity ([8]; in vitro clot lysis, versus untreated control): did not alter the activity of the rt-PA significantly

Substance: deglycosylated human tissue-type plasminogen activator: deglycosylated human tissue-type plasminogen activator (Larsen et al.)
- in vivo clearance rate [9]: not significantly different

Substance: melanoma-derived t-PA: t-PA isolated from melanoma cell line
- elimination [10]: unaffected
- uptake [11]: a pathway that could be inhibited by high mannose glycoproteins
- clearance [12]: unaffected by monosaccharides

Substance: transferrin: transferrin, serum glycoprotein, after removal of sialic acid
- half-life change [13]: no significant effect on half-life

Substance: urokinase
- half-life change [13]: extending the half-life
